Measurements published in patent US8828676B2, “Methods for differentiating plasma-derived protein from recombinant protein in a sample” (Baxter International Inc., priority 2007, dated 2014).
Like-named read-outs stand apart in the source and are kept apart here.

Assays:
[1] = molecular target: T1, Sambucus nigra agglutinin (SNA) (Sambucus nigra, UniProt Q41358); settings: for Change of SNA binding after neuraminidase treatment: neuraminidase 0-20 mU/mL, 2 hours 37° C.
[2] = molecular target: T1, Sambucus nigra agglutinin (SNA); settings: plasma pool 2.88-0.18 mU VWF:Ag/mL; rVWF 311-19 mU/mL
[3] = system: Maackia amurensis agglutinin (MAA); test: MAA binding of plasma VWF and rVWF after neuraminidase treatment; settings: for Binding to MAL after addition of neuraminidase: neuraminidase 1-20 mU/mL
Excerpt: In order to confirm that the recombinant protein did express sialic acid moieties, but in a different configuration than the plasma derived sialic acid, a binding assay that measures binding of protein to α2,3-linked neuraminic acid is used to detect the recombinantly expressed α2,3-linked neuraminic acid on the recombinant protein. The lectin, Maackia amurensis agglutinin (MAA), which binds α2,3-linked neuraminic acid, was used to determine if desialylation of rVWF occurred in the presence of neuraminidase.
Anti-vWF plates were prepared as above. Both the human plasma pool and the rVWF preparation were diluted to obtain VWF:Ag concentrations of 5 mU/mL and 2.5 mU/mL. 100 μL/well of the sample dilutions were loaded to the coated, periodate-oxidized plates and incubated for 60 minutes at RT and washed afterwards. The neuraminidase digest was then carried out on the plate. Neuraminidase (Sigma) was used at the concentrations of 0, 1, 5, 10 and 20 mU/mL. Afterwards, the plates were washed and incubated with the biotinylated MAA (Vector, 1 μg/mL) for 60 minutes at RT. The incubation was terminated by washing, after which the plates were incubated 30 minutes at RT with streptavidin peroxidase (DakoCytomation, 1/4000). After a final washing step, the bound peroxidase was measured as previously described.

[4] = molecular target: binding of SNA to plasma VWF (Sambucus nigra, UniProt Q41358); settings: for Inhibition of binding of SNA to plasma VWF: plasma VWF:Ag 5 mU/mL
Sequence of binding of SNA to plasma VWF (Q41358 309-570 limits assumed): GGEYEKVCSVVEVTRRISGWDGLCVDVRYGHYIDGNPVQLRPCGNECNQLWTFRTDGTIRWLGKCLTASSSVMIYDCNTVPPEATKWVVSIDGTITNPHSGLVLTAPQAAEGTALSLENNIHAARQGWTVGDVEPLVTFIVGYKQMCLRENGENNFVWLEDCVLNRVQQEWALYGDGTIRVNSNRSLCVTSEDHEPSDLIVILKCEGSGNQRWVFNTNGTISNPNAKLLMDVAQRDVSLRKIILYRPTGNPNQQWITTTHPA
Sequence of binding of SNA to plasma VWF (Q41358 29-289 partner limits assumed): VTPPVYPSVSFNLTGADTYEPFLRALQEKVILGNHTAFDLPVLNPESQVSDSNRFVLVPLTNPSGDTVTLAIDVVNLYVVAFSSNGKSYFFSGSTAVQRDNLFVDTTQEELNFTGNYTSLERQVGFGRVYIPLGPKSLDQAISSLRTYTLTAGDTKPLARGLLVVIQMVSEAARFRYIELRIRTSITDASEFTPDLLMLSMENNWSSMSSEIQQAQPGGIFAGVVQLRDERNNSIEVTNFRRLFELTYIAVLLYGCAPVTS

[5] = molecular target: T1, Sambucus nigra agglutinin (SNA); settings: mean of six tests, human plasma pool = 100%

Molecule: CHO cell-derived rVWF: recombinantly produced von Willebrand factor from Chinese hamster ovary (CHO) cells
- Change of SNA binding after neuraminidase treatment ([1]; VWF:Ag 5 and 2.5 mU/mL): not altered
- SNA binding ([1]; without neuraminidase, VWF:Ag 5 and 2.5 mU/mL): no binding
- SNA binding [2]: no binding
- Binding to MAL after addition of neuraminidase [3]: abolished
- MAA lectin binding ([3]; without neuraminidase): bound

Molecule: CC(=O)N[C@H]1[C@H]([C@H](O)[C@H](O)CO)O[C@@](OC[C@H]2O[C@@H](O[C@H]3[C@H](O)[C@@H](O)[C@H](O)O[C@@H]3CO)[C@H](O)[C@@H](O)[C@H]2O)(C(=O)O)C[C@@H]1O [6′-sialyllactose]
- Inhibition of binding of SNA to plasma VWF ([4]; 10 μM): approximately 25%
- Inhibition of binding of SNA to plasma VWF ([4]; 100 μM): ~75%

Molecule: plasma VWF: plasma derived von Willebrand factor, measured in a human plasma pool
- Change of SNA binding after neuraminidase treatment ([1]; VWF:Ag 5 and 2.5 mU/mL): reduced proportional to the concentration of the neuraminidase applied
- SNA binding relative to initially measured ([1]; neuraminidase 20 mU/mL): less than 95%
- SNA binding [2]: clear dose dependent relation
- SNA binding Mean (SNA binding measured) ([5]; Example 7, 0 U rVWF spiked): 137.2%
- SNA binding Mean (SNA binding found) ([5]; Example 8, 0 rVWF spiked): 123.5%
- Binding to MAL after addition of neuraminidase [3]: abolished

Molecule: CC(=O)N[C@H]1[C@H]([C@H](O)[C@H](O)CO)O[C@@](O[C@H]2[C@@H](O)[C@@H](CO)O[C@@H](O[C@H]3[C@H](O)[C@@H](O)C(O)O[C@@H]3CO)[C@@H]2O)(C(=O)O)C[C@@H]1O (some centres unmarked) [3′-sialyllactose]
- Effect on binding of SNA to plasma VWF ([4]; assay as in Example 5): no effect
